Test results as given in patent publication US20240158510A1 (GOVERNING COUNCIL OF THE UNIVERSITY OF TORONTO, published 2024).
Like-named read-outs stand apart in the source and are kept apart here.

Legend:
[1] = biological target: T1, integrin αvβ1 expressed on CHO cells (UniProt P06756 31-1048; P05556 21-798, limits assumed); assay: cell-based or functional assay
[2] = biological target: T1, integrin αvβ1 expressed on CHO cells; assay: cell-based or functional assay; remark: listed apart in the source
[3] = biological target: T2, integrin αvβ3 expressed on CHO cells (UniProt P06756 31-1048; P05106 27-788, limits assumed); assay: cell-based or functional assay
[4] = biological target: T3, integrin αvβ6 expressed on CHO cells (UniProt P06756 31-1048; P18564 22-788, limits assumed); assay: cell-based or functional assay
[5] = biological target: T4, integrin αvβ8 expressed on CHO cells (UniProt P06756 31-1048; P26012 43-769, limits assumed); assay: cell-based or functional assay
[6] = biological target: T1, integrin αvβ1 expressed on CHO cells; assay: cell-based or functional assay; remark: listed apart in the source
[7] = biological target: T2, integrin αvβ3 expressed on CHO cells; assay: cell-based or functional assay; remark: listed apart in the source
[8] = biological target: T5, integrin αvβ5 expressed on CHO cells (UniProt P06756 31-1048; P18084 24-799, limits assumed); assay: cell-based or functional assay
[9] = biological target: T1, integrin αvβ1 expressed on CHO cells; assay: flow cytometry titration on AvB1 CHO cells
Description: (§1) Adherent cells were brought into suspension using PBS supplemented with 10 mM ethylenediaminetetraacetic acid (EDTA). The cells were washed with PBS, resuspended in PBS supplemented with 1% BSA, and incubated for 15 minutes at 4° C. The cells were labelled with 50 μl of Fab-phage culture supernatant, or 500 nM Fab, or IgG for 30 minutes at 4° C., then washed with PBS and resuspended in PBS supplemented with 1% BSA. Next, the cells were labelled with anti-Fab (for Fab-phage), or anti-Flag (for Fabs) or anti-Fc (for IgGs) conjugated Alexa-488 secondary Ab according to manufacturer's instructions. Data were collected using a CytoFLEX-S flow-cytometer using a 488-nm laser with 530/25 nm filter settings. The cells were analyzed in PBS, and all acquired live events were greater than 10,000 cells per sample. Quantitation analysis was carried out using FlowJo v10.2 Software. For Ab cellular titration analysis, the Abs were added to antigen positive cells in duplicate samples from a range of 500 pM to 1 μM. The mean fluorescence signal values were subtracted from the control antigen negative cells signals, and EC50 determined using Graph-pad Prism, where x is the Fab concentration: […]

[10] = biological target: T2, integrin αvβ3 expressed on CHO cells; assay: flow cytometry titration on AvB3 CHO cells
Description: as §1

[11] = biological target: T5, integrin αvβ5 expressed on CHO cells; assay: flow cytometry titration on AvB5 CHO cells
Description: as §1

[12] = biological target: T3, integrin αvβ6 expressed on CHO cells; assay: flow cytometry titration on AvB6 CHO cells
Description: as §1

[13] = biological target: T4, integrin αvβ8 expressed on CHO cells; assay: flow cytometry titration on AvB8 CHO cells
Description: as §1

[14] = biological target: T3, integrin αvβ6 expressed on CHO cells; assay: flow cytometry titration on integrin-expressing CHO cells
Description: as §1

[15] = biological target: T4, integrin αvβ8 expressed on CHO cells; assay: as above
Description: as §1

[16] = biological target: T1, integrin αvβ1 expressed on CHO cells; assay: as above
Description: as §1

[17] = biological target: T2, integrin αvβ3 expressed on CHO cells; assay: as above
Description: as §1

[18] = biological target: T5, integrin αvβ5 expressed on CHO cells; assay: as above
Description: as §1

[19] = biological target: T6, recombinant human integrin-αvβ1 (human, UniProt P06756 31-992; P05556 21-728, limits assumed); assay: IgG titration on recombinant human integrin αvβ1, one site-total fit; assay format not stated; design: Bmax: unit not given here
T6 construct: also called Recombinant Human Integrins

[20] = biological target: T7, recombinant mouse integrin-αvβ1 (mouse, UniProt P43406 31-988; P09055 21-728, limits assumed); assay: IgG titration on recombinant mouse integrin αvβ1, one site-total fit; assay format not stated
T7 construct: also called Recombinant Mouse Integrins
T7 sequence (P43406 31-988 limits assumed, chain 1 of 2): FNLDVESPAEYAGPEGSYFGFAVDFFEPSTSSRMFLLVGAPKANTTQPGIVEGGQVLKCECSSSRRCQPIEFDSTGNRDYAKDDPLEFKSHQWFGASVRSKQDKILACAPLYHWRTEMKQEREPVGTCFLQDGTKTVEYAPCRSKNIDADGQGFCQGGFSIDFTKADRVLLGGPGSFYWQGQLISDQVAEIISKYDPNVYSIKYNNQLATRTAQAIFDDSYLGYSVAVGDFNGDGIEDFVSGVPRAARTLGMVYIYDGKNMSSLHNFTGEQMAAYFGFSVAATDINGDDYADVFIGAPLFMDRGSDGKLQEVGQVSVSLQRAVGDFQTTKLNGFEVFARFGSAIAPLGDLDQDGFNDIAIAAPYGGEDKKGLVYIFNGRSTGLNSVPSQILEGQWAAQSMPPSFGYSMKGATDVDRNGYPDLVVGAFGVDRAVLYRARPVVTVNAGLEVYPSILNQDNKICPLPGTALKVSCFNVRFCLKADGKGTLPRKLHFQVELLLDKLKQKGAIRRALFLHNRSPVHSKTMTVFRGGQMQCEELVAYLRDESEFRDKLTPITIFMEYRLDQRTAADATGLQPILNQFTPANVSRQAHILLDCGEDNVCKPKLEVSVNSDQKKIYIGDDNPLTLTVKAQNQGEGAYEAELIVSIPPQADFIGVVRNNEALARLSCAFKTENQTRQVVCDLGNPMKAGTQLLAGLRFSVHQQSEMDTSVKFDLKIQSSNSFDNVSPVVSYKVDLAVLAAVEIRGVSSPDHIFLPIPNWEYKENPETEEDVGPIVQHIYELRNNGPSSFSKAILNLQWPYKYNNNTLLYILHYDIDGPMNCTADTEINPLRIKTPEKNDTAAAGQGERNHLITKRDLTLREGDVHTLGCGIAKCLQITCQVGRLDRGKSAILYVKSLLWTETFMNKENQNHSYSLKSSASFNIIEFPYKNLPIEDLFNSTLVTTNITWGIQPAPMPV
T7 sequence (P09055 21-728 limits assumed, chain 2 of 2): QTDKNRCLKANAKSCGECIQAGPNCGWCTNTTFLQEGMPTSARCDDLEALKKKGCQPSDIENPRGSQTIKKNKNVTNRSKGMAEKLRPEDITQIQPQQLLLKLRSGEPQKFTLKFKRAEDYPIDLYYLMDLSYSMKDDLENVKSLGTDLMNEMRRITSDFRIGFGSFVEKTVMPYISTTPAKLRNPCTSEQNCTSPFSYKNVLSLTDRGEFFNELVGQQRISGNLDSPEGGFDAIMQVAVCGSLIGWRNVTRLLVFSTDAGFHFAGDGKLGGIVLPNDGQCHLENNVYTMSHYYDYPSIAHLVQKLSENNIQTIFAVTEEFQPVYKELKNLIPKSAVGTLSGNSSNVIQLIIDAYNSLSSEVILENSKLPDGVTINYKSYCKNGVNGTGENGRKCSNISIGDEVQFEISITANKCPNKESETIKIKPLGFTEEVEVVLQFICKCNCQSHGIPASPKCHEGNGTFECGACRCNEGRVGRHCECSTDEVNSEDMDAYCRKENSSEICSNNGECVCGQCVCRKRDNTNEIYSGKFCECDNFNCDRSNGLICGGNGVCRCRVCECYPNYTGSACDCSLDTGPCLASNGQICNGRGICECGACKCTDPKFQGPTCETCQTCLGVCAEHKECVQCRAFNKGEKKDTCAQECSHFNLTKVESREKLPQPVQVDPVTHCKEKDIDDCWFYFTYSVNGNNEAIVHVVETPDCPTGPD

T2 sequence (P06756 31-1048 limits assumed, chain 1 of 2): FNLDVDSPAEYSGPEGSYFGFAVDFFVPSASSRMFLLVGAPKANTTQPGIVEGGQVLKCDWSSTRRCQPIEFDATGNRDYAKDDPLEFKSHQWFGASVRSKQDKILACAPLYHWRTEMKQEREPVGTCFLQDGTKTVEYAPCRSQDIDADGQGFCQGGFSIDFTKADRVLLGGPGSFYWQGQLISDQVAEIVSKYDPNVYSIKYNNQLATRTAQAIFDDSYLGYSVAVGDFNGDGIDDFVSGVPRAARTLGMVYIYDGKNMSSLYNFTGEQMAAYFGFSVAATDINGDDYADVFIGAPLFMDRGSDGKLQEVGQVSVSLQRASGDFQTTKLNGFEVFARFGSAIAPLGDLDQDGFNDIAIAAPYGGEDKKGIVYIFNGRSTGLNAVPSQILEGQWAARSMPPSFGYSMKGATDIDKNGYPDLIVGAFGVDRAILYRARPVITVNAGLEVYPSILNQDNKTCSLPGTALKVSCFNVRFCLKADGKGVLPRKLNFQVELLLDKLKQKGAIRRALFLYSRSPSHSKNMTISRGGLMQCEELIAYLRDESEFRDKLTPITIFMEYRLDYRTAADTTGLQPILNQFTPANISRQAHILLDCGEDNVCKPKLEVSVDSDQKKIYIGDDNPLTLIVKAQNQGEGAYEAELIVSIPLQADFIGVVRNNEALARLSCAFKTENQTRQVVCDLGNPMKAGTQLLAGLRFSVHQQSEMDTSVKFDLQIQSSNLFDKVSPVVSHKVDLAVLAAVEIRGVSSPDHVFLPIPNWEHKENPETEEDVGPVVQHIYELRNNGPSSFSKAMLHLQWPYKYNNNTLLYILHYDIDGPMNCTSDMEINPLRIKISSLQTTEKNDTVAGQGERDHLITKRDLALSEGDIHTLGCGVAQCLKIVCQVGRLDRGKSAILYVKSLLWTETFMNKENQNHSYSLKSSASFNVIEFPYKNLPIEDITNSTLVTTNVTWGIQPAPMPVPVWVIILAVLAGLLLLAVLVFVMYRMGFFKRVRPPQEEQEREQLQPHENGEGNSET
T2 sequence (P05106 27-788 limits assumed, chain 2 of 2): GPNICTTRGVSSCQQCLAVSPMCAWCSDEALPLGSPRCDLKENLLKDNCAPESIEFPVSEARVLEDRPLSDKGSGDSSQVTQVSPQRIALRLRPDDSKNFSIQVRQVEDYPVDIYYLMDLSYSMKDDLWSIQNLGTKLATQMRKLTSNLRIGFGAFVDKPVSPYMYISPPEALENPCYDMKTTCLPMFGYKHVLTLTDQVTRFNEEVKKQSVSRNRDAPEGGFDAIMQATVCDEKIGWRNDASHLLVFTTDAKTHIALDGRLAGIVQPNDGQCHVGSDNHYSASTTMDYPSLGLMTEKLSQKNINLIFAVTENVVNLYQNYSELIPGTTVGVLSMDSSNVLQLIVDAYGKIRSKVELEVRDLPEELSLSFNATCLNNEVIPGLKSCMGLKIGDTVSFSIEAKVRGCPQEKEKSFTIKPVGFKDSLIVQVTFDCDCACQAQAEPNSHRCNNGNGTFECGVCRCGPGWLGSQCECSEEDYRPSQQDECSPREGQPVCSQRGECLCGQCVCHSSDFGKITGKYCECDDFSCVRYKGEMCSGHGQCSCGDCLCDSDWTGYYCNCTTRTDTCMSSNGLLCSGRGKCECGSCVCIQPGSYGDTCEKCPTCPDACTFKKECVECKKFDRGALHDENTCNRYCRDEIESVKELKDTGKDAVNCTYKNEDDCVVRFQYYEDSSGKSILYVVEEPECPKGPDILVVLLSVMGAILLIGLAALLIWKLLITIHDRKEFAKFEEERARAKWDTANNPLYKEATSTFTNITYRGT
T4 sequence (P06756 31-1048 limits assumed, chain 1 of 2): as the sequence (P06756 31-1048 limits assumed, chain 1 of 2) above
T4 sequence (P26012 43-769 limits assumed, chain 2 of 2): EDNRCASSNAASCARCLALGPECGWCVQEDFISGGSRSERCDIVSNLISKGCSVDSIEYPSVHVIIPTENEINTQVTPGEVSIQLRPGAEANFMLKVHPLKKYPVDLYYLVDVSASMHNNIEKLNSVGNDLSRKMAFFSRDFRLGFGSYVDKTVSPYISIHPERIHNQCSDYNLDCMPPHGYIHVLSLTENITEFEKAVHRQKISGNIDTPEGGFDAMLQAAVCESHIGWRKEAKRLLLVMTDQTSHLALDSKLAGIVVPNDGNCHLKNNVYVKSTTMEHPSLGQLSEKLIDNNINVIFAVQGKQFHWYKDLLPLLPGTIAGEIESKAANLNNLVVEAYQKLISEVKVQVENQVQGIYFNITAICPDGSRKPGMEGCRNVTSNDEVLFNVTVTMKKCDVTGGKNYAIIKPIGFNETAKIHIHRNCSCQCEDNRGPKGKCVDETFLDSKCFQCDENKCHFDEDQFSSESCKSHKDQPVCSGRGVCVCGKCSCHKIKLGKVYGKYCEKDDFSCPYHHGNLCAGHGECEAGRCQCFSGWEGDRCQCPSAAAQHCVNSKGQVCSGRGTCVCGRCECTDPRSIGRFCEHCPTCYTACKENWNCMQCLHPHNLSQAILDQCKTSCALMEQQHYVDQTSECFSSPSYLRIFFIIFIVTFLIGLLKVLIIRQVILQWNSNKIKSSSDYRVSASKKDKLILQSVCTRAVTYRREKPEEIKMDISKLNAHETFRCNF
T5 sequence (P06756 31-1048 limits assumed, chain 1 of 2): as the sequence (P06756 31-1048 limits assumed, chain 1 of 2) above
T5 sequence (P18084 24-799 limits assumed, chain 2 of 2): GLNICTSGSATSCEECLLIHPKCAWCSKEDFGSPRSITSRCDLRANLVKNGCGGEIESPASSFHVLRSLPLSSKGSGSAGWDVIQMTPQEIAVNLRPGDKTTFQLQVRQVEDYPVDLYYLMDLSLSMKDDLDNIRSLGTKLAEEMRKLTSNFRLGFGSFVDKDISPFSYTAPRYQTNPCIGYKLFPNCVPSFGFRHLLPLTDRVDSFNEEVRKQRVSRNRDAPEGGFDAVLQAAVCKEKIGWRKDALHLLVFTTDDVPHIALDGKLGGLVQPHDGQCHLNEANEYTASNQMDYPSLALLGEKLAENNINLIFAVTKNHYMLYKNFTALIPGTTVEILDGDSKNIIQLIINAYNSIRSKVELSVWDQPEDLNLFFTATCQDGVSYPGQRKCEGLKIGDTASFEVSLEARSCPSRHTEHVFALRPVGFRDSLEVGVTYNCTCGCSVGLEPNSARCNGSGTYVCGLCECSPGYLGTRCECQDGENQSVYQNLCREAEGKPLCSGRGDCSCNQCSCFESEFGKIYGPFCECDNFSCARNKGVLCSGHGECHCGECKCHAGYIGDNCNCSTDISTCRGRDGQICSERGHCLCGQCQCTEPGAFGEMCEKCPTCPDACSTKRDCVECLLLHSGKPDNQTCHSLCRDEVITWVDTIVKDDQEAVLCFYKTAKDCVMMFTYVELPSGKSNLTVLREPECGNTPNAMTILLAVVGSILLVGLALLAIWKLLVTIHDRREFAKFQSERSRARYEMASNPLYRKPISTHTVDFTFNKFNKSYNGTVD

Row | Binder | IC50, inhibition of CHO cell adhesion to LAP-TGFβ [4] | IC50, inhibition of CHO cell adhesion to LAP-TGFβ [5] | IC50, inhibition of CHO cell adhesion to LAP-TGFβ [6] | IC50, inhibition of CHO cell adhesion to LAP-TGFβ [7] | IC50, inhibition of CHO cell adhesion to LAP-TGFβ [8] | EC50 [9] | EC50 [10] | EC50 [11] | EC50 [12] | EC50 [13] | Bmax [19] | Kd [19] | Bmax [20] | Kd [20] | further results
1 | IgG clone 10392, hG1/hk (pSCSTa-hG1 (10392) heavy chain, pSCSTa-hK (10392) light chain) (antibody, V domains shown, Full-length human IgG1/kappa made in Expi293 cells) VH: EVQLVESGGGLVQPGGSLRLSCAASGFNIYYSSIHWVRQAPGKGLEWVASISSSSGSTSTYADSVKGRFTISADTSKNTAYLQMNSLRAEDTAVYYCARSYYGGGYPYALDYWGQGTLVTVSS VL: DIQMTQSPSSLSASVGDRVTITCRASQSVSSAVAWYQQKPGKAPKLLIYSASSLYSGVPSRFSGSRSGTDFTLTISSLQPEDFATYYCQQYFGGLITFGQGTKVEIKR | 1.4 nM | 1.3 nM | 5 nM | 1.2 nM | 0.7 nM | 3 nM | 9.9 nM | 1.3 nM | 3.7 nM | 11.6 nM | 0.412 | 0.421 nM | 0.412 | 0.421 nM | adhesion of integrin-αvβ1 CHO cells to LAP-TGFβ, normalised confluence, number over the bar, untreated = 100 [1]: 61.2%; IC50, inhibition of CHO cell adhesion to LAP-TGFβ [2]: < 1 nM; IC50, inhibition of CHO cell adhesion to LAP-TGFβ [3]: 45 nM; EC50 [14]: 3.26 nM; EC50 [15]: 11.4 nM; EC50 [16]: 2.72 nM; EC50 [17]: 14.8 nM; EC50 [18]: 3.4 nM
2 | 10392 hG1 LALA PG/hk (antibody, human IgG1, V domains shown, not shown: human IgG1 constant region with 'LALA PG' changes) VH: EVQLVESGGGLVQPGGSLRLSCAASGFNIYYSSIHWVRQAPGKGLEWVASISSSSGSTSTYADSVKGRFTISADTSKNTAYLQMNSLRAEDTAVYYCARSYYGGGYPYALDYWGQGTLVTVSS VL: DIQMTQSPSSLSASVGDRVTITCRASQSVSSAVAWYQQKPGKAPKLLIYSASSLYSGVPSRFSGSRSGTDFTLTISSLQPEDFATYYCQQYFGGLITFGQGTKVEIKR | – | – | – | – | – | – | – | – | – | – | 0.555 | 0.411 nM | 0.555 | 0.411 nM | –
3 | 10404 hG1 LALA PG/hk (antibody, V domains shown, not shown: human IgG1 constant region with 'LALA PG' changes) VH: EVQLVESGGGLVQPGGSLRLSCAASGFNLYSSSIHWVRQAPGKGLEWVAYIYPSYGYTSTYADSVKGRFTISADTSKNTAYLQMNSLRAEDTAVYYCARPAPYYSWYPAMDYWGQGTLVTVSS VL: DIQMTQSPSSLSASVGDRVTITCRASQSVSSAVAWYQQKPGKAPKLLIYSASSLYSGVPSRFSGSRSGTDFTLTISSLQPEDFATYYCQQASGSPFTFGQGTKVEIKR | – | – | – | – | – | – | – | – | – | – | 1.09 | 0.244 nM | 1.09 | 0.244 nM | –
4 | 10404 hG4/hk (antibody, V domains shown, the IgG4 constant region used is not specified; not shown: human IgG4 constant region ('hG4')) VH: EVQLVESGGGLVQPGGSLRLSCAASGFNLYSSSIHWVRQAPGKGLEWVAYIYPSYGYTSTYADSVKGRFTISADTSKNTAYLQMNSLRAEDTAVYYCARPAPYYSWYPAMDYWGQGTLVTVSS VL: DIQMTQSPSSLSASVGDRVTITCRASQSVSSAVAWYQQKPGKAPKLLIYSASSLYSGVPSRFSGSRSGTDFTLTISSLQPEDFATYYCQQASGSPFTFGQGTKVEIKR | – | – | – | – | – | – | – | – | – | – | 0.782 | 0.358 nM | 0.782 | 0.358 nM | –
5 | 10392 hG4/hk (antibody, human IgG4, V domains shown, not shown: human IgG4 constant region ('hG4')) VH: EVQLVESGGGLVQPGGSLRLSCAASGFNIYYSSIHWVRQAPGKGLEWVASISSSSGSTSTYADSVKGRFTISADTSKNTAYLQMNSLRAEDTAVYYCARSYYGGGYPYALDYWGQGTLVTVSS VL: DIQMTQSPSSLSASVGDRVTITCRASQSVSSAVAWYQQKPGKAPKLLIYSASSLYSGVPSRFSGSRSGTDFTLTISSLQPEDFATYYCQQYFGGLITFGQGTKVEIKR | – | – | – | – | – | – | – | – | – | – | 0.85 | 0.842 nM | 0.85 | 0.842 nM | –
6 | Bi-IgG 11867/10392 (bispecific antibody) heavy chain 10392, knob: EVQLVESGGGLVQPGGSLRLSCAASGFNIYYSSIHWVRQAPGKGLEWVASISSSSGSTSYADSVKGRFTISADTSKNTAYLQMNSLRAEDTAVYYCARSYYGGGYPYALDYWGQGTLVTVSSASTKGPSVFPLAPSSKSTSGGTAALGCLVKDYFPEPVTVSWNSGALTSGVHTFPAVLQSSGLYSLSSVVTVPSSSLGTQTYICNVNHKPSNTKVDKKVEPKSCDKTHTCPPCPAPELLGGPSVFLFPPKPKDTLMISRTPEVTCVVVDVSHEDPEVKFNWYVDGVEVHNAKTKPREEQYNSTYRVVSVLTVLHQDWLNGKEYKCKVSNKALPAPIEKTISKAKGQPREPMVFDLPPSREEMTKNQVSLWCMVKGFYPSDIAVEWESNGQPENNYKTTPPVLDSDGSFFLYSKLTVDKSRWQQGNVFSCSVMHEALHNHYTQKSLSLSPGK heavy chain 11867, hole: EVQLVESGGGLVQPGGSLRLSCAASGFDFDSYAIHWVRQAPGKGLEWVAYFYPGHDYSTYADSVKGRFTISADTSKNTAYLQMNSLRAEDTAVYYCARPSPYFSWHQAMDYWGQGTLVTVSSASTKGPSVFPLAPSSKSTSGGTAALGCLVKDYFPEPVTVSWNSGALTSGVHTFPAVLQSSGLYSLSSVVTVPSSSLGTQTYICNVNHKPSNTKVDKKVEPKSCDKTHTCPPCPAPELLGGPSVFLFPPKPKDTLMISRTPEVTCVVVDVSHEDPEVKFNWYVDGVEVHNAKTKPREEQYNSTYRVVSVLTVLHQDWLNGKEYKCKVSNKALPAPIEKTISKAKGQPREPQVYTLPPIRELMTSNQVSLSCAVKGFYPSDIAVEWESNGQPENNYKTTPPVLDSDGSFFLVSKLTVDKSRWQQGNVFSCSVMHEALHNHYTQKSLSLSPGK light chain 11867: DIQMTQSPSSLSASVGDRVTITCRASQSVSSAVAWYQQKPGKAPKLLIYSASSLYSGVPSRFSGSRSGTDFTLTISSLQPEDFATYYCQQATGSEVTFGQGTKVEIKRTVAAPSVFIFPPSDEQLKSGTASVVCLLNNFYPREAKVQWKVDNALQSGNSQESVTEQDSKDSTYSLSSTLTLSKADYEKHKVYACEVTHQGLSSPVTKSFNRGEC | 6.1 nM | 2.5 nM | 3.2 nM | 7.5 nM | 4.1 nM | 2.4 nM | 15.9 nM | 1.2 nM | 2.5 nM | 6.4 nM | – | – | – | – | –
